From patent US20260217843A1 (APOGEE THERAPEUTICS, published 2026) come the findings set out here.

For assay [1], the target named is T1, Recombinant Human OX40L Protein, His Tag (Acro Cat. IL3-H52H4) (human, UniProt P23510 51-183).
T1 construct: Bought His-tagged protein; also called hOX40L
T1 sequence: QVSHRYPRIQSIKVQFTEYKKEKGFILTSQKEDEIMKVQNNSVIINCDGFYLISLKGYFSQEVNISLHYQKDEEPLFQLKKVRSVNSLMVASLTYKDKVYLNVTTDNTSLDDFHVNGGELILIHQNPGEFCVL
Description: SPR (Biacore 8K), antibody captured, human OX40L injected, 1:1 fit. How it is done: (§1) Samples were injected in a multi-cycle manner over freshly captured mAb, by regenerating the capture surfaces with injection of glycine pH 1.5 for 30 sec at a flow rate of 30 μL/min. The data was processed and analyzed with Biacore Insight Evaluation Software Version 2.0.15.12933 (GE Healthcare) as follows. […] The responses from the two buffer blank injections were then subtracted from the reference subtracted data (2-1) to yield double-referenced data, which were fit to an 1:1 binding model to determine the apparent association (ka) and dissociation rate constants (kd). Their ratio provided the apparent equilibrium dissociation constant or affinity constant (KD=kd/ka).
(Surface plasmon resonance follows binding to a sensor surface in real time, without labels.)

The target in another assay is T2, biotinylated hOX40L (human, UniProt P23510 51-183, limits assumed, biotinylated (sites not given)).
T2 construct: construct not described
T2 sequence: T1 sequence
Description: blocking ELISA: biotinylated hOX40L preincubated with titrated antibody, added to coated hOX40-Fc, Extravidin-HRP. A general note: In an ELISA, binding on a coated surface is turned into a signal by an enzyme label.

Assay [2] deals with T3, Recombinant Cynomolgus OX40L Protein, His Tag (SINO BIOLOGICAL, Cat. 11057-C07H) (cynomolgus, UniProt G7NVH7 51-183).
T3 construct: Bought protein
T3 sequence: T1 sequence with R5Q, K23E
Description: SPR (Biacore 8K), antibody captured, cynomolgus OX40L injected, 1:1 fit. How it is done:
as §1

Assay [3] deals with T4, hOX40L added as soluble protein in cell assays (human, UniProt P23510 51-183, limits assumed).
T4 sequence: T1 sequence
Description: cell-based or functional assay.

Another assay deals with T5, C1q.
T5 construct: also called Clq
T5 sequence (P02745 23-245, chain 1 of 3): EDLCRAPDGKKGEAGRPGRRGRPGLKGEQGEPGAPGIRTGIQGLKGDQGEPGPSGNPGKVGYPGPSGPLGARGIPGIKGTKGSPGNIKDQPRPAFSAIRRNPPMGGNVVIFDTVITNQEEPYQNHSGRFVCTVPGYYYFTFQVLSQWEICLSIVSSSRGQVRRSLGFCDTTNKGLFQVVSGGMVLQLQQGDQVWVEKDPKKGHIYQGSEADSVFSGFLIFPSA
T5 sequence (P02746 28-253, chain 2 of 3, further chain): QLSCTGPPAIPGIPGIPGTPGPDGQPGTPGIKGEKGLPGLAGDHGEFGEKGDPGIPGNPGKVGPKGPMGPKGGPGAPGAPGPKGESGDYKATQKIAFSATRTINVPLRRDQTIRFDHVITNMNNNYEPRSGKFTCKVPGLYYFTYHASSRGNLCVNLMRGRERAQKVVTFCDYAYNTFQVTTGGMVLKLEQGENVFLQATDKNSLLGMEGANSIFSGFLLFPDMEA
T5 sequence (P02747 29-245, chain 3 of 3, further chain): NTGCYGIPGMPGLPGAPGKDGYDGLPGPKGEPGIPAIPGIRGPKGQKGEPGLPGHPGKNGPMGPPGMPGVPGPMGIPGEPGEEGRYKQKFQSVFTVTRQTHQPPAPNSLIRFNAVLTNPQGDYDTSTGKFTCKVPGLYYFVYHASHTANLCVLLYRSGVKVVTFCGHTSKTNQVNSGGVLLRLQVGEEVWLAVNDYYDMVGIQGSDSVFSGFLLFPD
Description: SPR (Biacore 8K+), antibody captured by anti-human IgG Fc, C1q injected at 25 nM, mean response. How it is done:
Briefly, a CM5 Series S sensor chip functionalized with anti-human IgG Fc antibody was used to capture antibodies at 5 μg/mL. […] The chip was regenerated with 10 mM glycine pH 1.5 and 10 mM NaOH between runs.

In another assay the target is human FcRn (human, UniProt P55899 24-297; P61769 21-119). Description: SPR (Biacore 8K+), antibody captured by anti-human kappa, human FcRn injected, pH 5.8; pH 5.8. The protocol: (§2) Briefly, a CM5 Series S sensor chip functionalized with anti-human kappa antibody was used to capture antibodies at 5 μg/mL. […] The chip was regenerated with 10 mM glycine pH 1.5 and 10 mM NaOH between runs.
Chain of human FcRn (P55899 24-297 limits assumed, form in doubt, chain 1 of 2): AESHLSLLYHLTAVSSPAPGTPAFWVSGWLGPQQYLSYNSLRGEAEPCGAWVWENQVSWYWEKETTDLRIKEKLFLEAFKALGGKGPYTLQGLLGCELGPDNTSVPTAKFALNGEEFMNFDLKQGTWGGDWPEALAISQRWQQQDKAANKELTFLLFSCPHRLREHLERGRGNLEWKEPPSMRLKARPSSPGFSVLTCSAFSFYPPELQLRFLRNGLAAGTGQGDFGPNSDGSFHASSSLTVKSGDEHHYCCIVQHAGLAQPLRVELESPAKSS
Chain of human FcRn (P61769 21-119 limits assumed, form in doubt, chain 2 of 2): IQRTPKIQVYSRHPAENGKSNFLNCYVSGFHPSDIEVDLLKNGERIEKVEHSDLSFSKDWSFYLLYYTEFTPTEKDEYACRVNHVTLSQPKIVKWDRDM

For another assay, the target named is cynomolgus FcRn (cynomolgus, UniProt Q8SPV9 24-297; Q8SPW0 21-119). Kind of assay: SPR (Biacore 8K+), antibody captured by anti-human kappa, cynomolgus FcRn injected, pH 5.8; pH 5.8. How it is done:
as §2

Assay [4] concerns the target T6, hOX40L on hOX40L-expressing CHO cells (human, UniProt P23510 1-183).
T6 construct: also called cell surface OX40L
T6 sequence: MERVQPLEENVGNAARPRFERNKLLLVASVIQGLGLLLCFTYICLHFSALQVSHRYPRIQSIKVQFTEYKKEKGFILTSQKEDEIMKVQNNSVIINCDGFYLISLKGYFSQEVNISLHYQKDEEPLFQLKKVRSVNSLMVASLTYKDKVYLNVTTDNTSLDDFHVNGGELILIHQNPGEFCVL
Kind of assay: flow cytometry on hOX40L-expressing CHO cells, gMFI, nonlinear regression. How it is done: Nonlinear regression was performed on geometric mean fluorescence intensity (gMFI) values to determine EC50 values (FIG. 1, TABLE 8).
For orientation: Flow cytometry measures light scatter and fluorescence of single cells or particles in a stream.

Residue numbers refer to the chain shown, from its start.

Chain of cynomolgus FcRn (Q8SPV9 24-297 limits assumed, chain 1 of 2): as the sequence (P55899 24-297 limits assumed, form in doubt, chain 1 of 2) above, with N39D, E44Q, G99S, S189G, S190N, L217M, S269T counted along it
Chain of cynomolgus FcRn (Q8SPW0 21-119 limits assumed, chain 2 of 2): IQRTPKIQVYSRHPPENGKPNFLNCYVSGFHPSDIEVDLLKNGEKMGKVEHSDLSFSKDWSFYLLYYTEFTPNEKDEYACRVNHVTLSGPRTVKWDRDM

B1: anti-hOX40L antibody clone 130 (antibody, human IgG1, kappa, L234A L235A, V domains shown)
VH: EVQLVESGGGLVKPGGSLRLSCAASGFTFSYAWMSWVRQAPGRGLEWVGRIKSETDGGTTDYAAPVKGRFTISRDHSENTLFLQMNSLKTEDTAVYYCTTGSSWNVYFFDFWGQGTLVTVSS
VL: DIQMTQSPSSLSASVGDSVTITCRASQSISNYLNWYHQKPGKAPKLLIYAAYRLQTGVPSRFSGSGSGTDFTLTISSLQPEDFATYYCQQSYSSPLTFGGGTKVEIKR
What is called Kd is the constant that tells how readily two partners part at equilibrium. A word on the koff: it is the rate constant with which the complex falls apart. The kon is a measure of how fast the partners come together. As usually defined, the IC50 is the concentration that gives 50% inhibition. As for B1, in assay [1], the Kd was 0.0873 nM, the koff is 1.14e-05 s⁻¹ and the kon was 131000 M⁻¹ s⁻¹. The IC50 with biotinylated hOX40L worked out at 13 nM.

B2: anti-hOX40L antibody clone 328 (antibody, human IgG1, kappa, L234A L235A)
heavy: QVQLQESGPGLVKPSQTLSLTCTVSGGSISSGGYYWSWIRQYPGKGLEWIGHIYYSGSTKYNPSLKSRLTISVDTSKNQFSLKLSSVTAADTAVYYCARDNWGSGWYYMDVWGKGTTVTVSSASTKGPSVFPLAPSSKSTSGGTAALGCLVKDYFPEPVTVSWNSGALTSGVHTFPAVLQSSGLYSLSSVVTVPSSSLGTQTYICNVNHKPSNTKVDKKVEPKSCDKTHTCPPCPAPEAAGGPSVFLFPPKPKDTLYITREPEVTCVVVDVSHEDPEVKFNWYVDGVEVHNAKTKPREEQYNSTYRVVSVLTVLHQDWLNGKEYKCKVSNKALPAPIEKTISKAKGQPREPQVYTLPPSRDELTKNQVSLTCLVKGFYPSDIAVEWESNGQPENNYKTTPPVLDSDGSFFLYSKLTVDKSRWQQGNVFSCSVMHEALHNHYTQKSLSLSPG
light: EIVLTQSPATLSLSPGERATLSCRASQSVSNYFAWYRQKPGQAPRLLIYDASNRATGIPARFSGSGSGTDFTLTISSLEPEDFAVYYCQHRSNWPLTFGGGTKVEIKRTVAAPSVFIFPPSDEQLKSGTASVVCLLNNFYPREAKVQWKVDNALQSGNSQESVTEQDSKDSTYSLSSTLTLSKADYEKHKVYACEVTHQGLSSPVTKSFNRGEC
Turning to B2, the Kd in assay [1] worked out at 0.136 nM; in assay [2], 0.0316 nM; in the assay with human FcRn, 137 nM; in the assay with cynomolgus FcRn, 116 nM. The koff in assay [1] turned out to be 0.000271 s⁻¹; in assay [2], 0.000152 s⁻¹; with human FcRn it was 0.046 s⁻¹; with cynomolgus FcRn it was 0.0462 s⁻¹. Besides, the association rate constant (kon) in assay [1] amounted to 2e+06 M⁻¹ s⁻¹; in assay [2] it was 4.8e+06 M⁻¹ s⁻¹; with human FcRn it was 336000 M⁻¹ s⁻¹; in the assay with cynomolgus FcRn, 399000 M⁻¹ s⁻¹. In addition, the “IC50, luminescence (RLU), hOX40 reporter cells with 50 ng/mL hOX40L” value (shortened to “IC50, luminescence (RLU)”) in assay [3] was found to be 1.9 nM. The “RU at 25 nM C1q” value in the assay with C1q is 0.2 RU. Half-maximal inhibition with biotinylated hOX40L (IC50) was put at 5.99 nM.

B3: anti-hOX40L antibody clone 127 (antibody, human IgG1, kappa, L234A L235A, V domains shown)
VH: EVQLVESGGGFVKPGGSLRLSCAASGFTFSNAWMSWVRQAPGKGLEWVGRIKSNSYGGTTDYAAPAIGRFTISRDGSKSTLYLQMNSLKTEDTAVYYCTTDHPKFGFDFWGQGTLVTVSS
VL: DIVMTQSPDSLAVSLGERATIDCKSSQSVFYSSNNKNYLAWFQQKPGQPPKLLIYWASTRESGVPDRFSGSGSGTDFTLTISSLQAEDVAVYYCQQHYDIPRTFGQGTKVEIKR
As for B3, in assay [1], the Kd is 1.11 nM, the koff worked out at 0.00021 s⁻¹ and the kon came to 189000 M⁻¹ s⁻¹. Also, in assay [3], the “IC50, luminescence (RLU)” value came out at 1.72 nM.

B4: anti-hOX40L antibody clone 122 (antibody, human IgG1, kappa, L234A L235A, V domains shown)
VH: EVQLVESGGGLVQPGGSLRLSCAASGFTFSNYWMHWVRQAPGKGLVWVSRINSDGISTRYADSVKGRFTISRDNAKNTLYLQMKSLRAEDTAVYYCVRDFQLELPDYWGQGTLVTVSS
VL: DIQMTQSPSSLSASVGDRVTITCRASQGIRDDLAWYQQKAGKAPKRLIFAASSLQSGVPSRFSGSGSGTEFTLTISGLQPEDFANYYCLQHKSNPFTFGQGTKLEIKR
Take B4: in assay [1], the Kd was under 0.00662 nM, the koff was under 1e-06 s⁻¹ and the kon stood at 151000 M⁻¹ s⁻¹. The IC50 in the assay with biotinylated hOX40L was found to be 1.57 nM.

B5: anti-hOX40L antibody clone 118 (antibody, human IgG1, kappa, L234A L235A, V domains shown)
VH: EVQVVESGGGLIQPGGSLRISCAASGFPVSSNYMSWVRQAPGKGLDWVSIIYSRDSTHYADSVKGRFTMSRDNSKNTVYLQMNSLRAEDTAVYYCAGTLTYYYGAGSDYWGQGTLVTVSS
VL: DIQMTQSPSSLSASVGDRVTITCRASQGIRNDLGWYQQKPGKAPKRLIYAASSLQSGVPSRFSGSGSGTEFTLTISSLQPEDFATYYCLQHNSYPWSFGQGTKVEIKR
For B5, in assay [1], the Kd came out at 0.182 nM, the koff came out at 2.82e-05 s⁻¹ and the kon was 155000 M⁻¹ s⁻¹. In assay [3], the “IC50, luminescence (RLU)” value is 0.912 nM.

B6: positive control based on the sequences of the anti-hOX40L antibody amlitelimab (antibody, IgG4, V domains shown)
VH: EVQLVESGGGLVQPGGSLRLSCAASGFTFSNYAMNWVRQAPGKGLEWVSTISGSGGATRYADSVKGRFTISRDNSRNTVYLQMNSLRVEDTAVFYCTKDRLIMATVRGPYYYGMDVWGQGTTVTVSS
VL: DIQMTQSPSSLSASVGDRVTITCRASQSISSYLNWYQQKPGKAPNLLIYAASSLQSGVPSRFSGSGSETDFTLTISSLQPEDFATYYCQQSHSVSFTFGPGTKVDIK
notes: also called Pos; Ctrl
One may read the EC50 as the midpoint of the concentration-response curve. Low values mean a more potent agent, high ones a less potent agent. In assay [4], B6 yielded an EC50 of 3.49 nM. Besides, in assay [2], the dissociation constant (Kd) worked out at 0.0455 nM, the koff came out at 0.000119 s⁻¹ and the kon worked out at 2.62e+06 M⁻¹ s⁻¹. The IC50 with biotinylated hOX40L came to 0.62 nM.

B7: anti-hOX40L antibody clone 128 (antibody, human IgG1, kappa, L234A L235A, V domains shown)
VH: EVQLVESGGGLVTPGGSLRISCAASGFTFNNAWMTWVRQAPGKGLEWVGRIKSISYGGTTDSAAPVKGRFTISRDDSENTLYLQMSSLKTEDTAVYYCSTGSVWKYGGSLDFWGQGTLVTVSS
VL: DIQMTQSPSSLSASVGDRVTFTCRASQGISRFLNWYQQKPGKAPKLLIYAASTLQNGVPSRFSGSGSGTDFTLTISSLQPEDFATYFCQQTYSTPLTFGGGTKVEIYR
As to B7, in assay [1], the Kd is under 0.00893 nM, the koff was under 1e-06 s⁻¹ and the kon is 112000 M⁻¹ s⁻¹. In the assay with biotinylated hOX40L, this molecule returned an IC50 of 7.52 nM.
